1 substance from paper PMC8060857 can be followed below.

The target of the assay is HR-N1, SARS S protein amino acids 882-973 (SARS-CoV (Urbani strain)) (UniProt P59594). Put plainly: AUC.

“HR-N1, SARS S protein amino acids 882-973 (from UniProt P59594 882-973) (domain or fragment)” had a stoichiometry N of 4.

Broadly, the stoichiometry N is a count of units in the complex or per binding partner.
